We go through one substance from patent US7247704.

For the experiment, the target named is Human Lung Tryptase (human) (UniProt Q15661). As to the kind of experiment: cell-based or functional assay.
Chain of UniProt Q15661 (Q15661 31-275 limits assumed): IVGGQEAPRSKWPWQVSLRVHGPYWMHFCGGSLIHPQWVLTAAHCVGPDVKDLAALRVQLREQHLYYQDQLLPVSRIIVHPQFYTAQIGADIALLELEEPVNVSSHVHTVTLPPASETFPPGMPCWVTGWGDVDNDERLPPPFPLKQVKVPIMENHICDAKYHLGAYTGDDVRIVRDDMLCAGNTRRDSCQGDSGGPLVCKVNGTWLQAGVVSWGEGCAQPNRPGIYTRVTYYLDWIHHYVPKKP

For the substance “recombinant human Secretory Leukocyte Protease Inhibitor (rhSLPI) (from UniProt P03973 26-132)”, the % Inhibition of tryptase (cleavage of vasoactive intestinal peptide, RP-HPLC; example calculation) is 36.7%.
